Measurements taken from patent US20140315799A1 (J DAVID GLADSTONE INSTITUTES, published 2014).

Target: T1, endogenous p75^NTR in 3T3L1 adipocytes (mouse, UniProt Q9Z0W1 32-427)
T1 construct: whole, on cells
T1 sequence (looked up): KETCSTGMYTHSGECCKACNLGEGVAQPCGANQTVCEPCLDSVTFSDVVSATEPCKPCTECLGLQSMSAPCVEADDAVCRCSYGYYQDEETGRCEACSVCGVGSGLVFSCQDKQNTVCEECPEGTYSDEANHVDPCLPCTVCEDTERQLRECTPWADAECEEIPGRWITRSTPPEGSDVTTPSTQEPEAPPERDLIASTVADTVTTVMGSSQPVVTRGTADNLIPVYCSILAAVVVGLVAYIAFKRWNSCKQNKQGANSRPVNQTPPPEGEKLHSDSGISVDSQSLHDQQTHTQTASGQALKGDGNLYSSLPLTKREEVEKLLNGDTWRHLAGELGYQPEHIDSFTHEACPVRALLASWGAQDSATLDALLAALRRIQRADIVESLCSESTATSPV
Assay: endogenous co-IP from 3T3L1 adipocytes (anti-p75NTR IP, anti-Rab31 blot)
Experimental: Briefly, cell lysates were prepared in 1% Nonidet P-40 (NP-40; non-ionic detergent), 200 mM NaCl, 1 mM EDTA, and 20 mM Tris-HCl, pH 8.0. Immunoprecipitations (IPs) were performed with an anti-p75^NTR antibody and immunoblot with anti-Rab31 and anti-p75^NTR.
(C) Immunoprecipitation of p75^NTR with Rab31 and Rab5 in 3T3L1 adipocytes stimulated with insulin. Lysates were immunoprecipitated with anti-p75^NTR antibody, and western blots were developed with anti-Rab31 and anti-Rab5 antibodies.

B1: endogenous Rab31 in 3T3L1 adipocytes (enzyme, UniProt Q921E2 1-195, looked up)
chain: MMAIRELKVCLLGDTGVGKSSIVCRFVQDHFDHNISPTIGASFMTKTVPCGNELHKFLIWDTAGQERFHSLAPMYYRGSAAAVIVYDITKQDSFHTLKKWVKELKEHGPENIVMAIAGNKCDLSDIREVPLKDAKEYAESIGAIVVETSAKNAINIEELFQGISRQIPPLGPQENGNSGGIKLGNQSLQASRRCC
- binding result: binds
